Reference: PMC11016754, “Allosteric Probe-Based Colorimetric Assay for Direct Identification and Sensitive Analysis of Methicillin Resistance of Staphylococcus aureus”

Target: T1, PBP2a (penicillin binding protein 2a) (Staphylococcus aureus …, UniProt Q53707 25-668)
T1 sequence: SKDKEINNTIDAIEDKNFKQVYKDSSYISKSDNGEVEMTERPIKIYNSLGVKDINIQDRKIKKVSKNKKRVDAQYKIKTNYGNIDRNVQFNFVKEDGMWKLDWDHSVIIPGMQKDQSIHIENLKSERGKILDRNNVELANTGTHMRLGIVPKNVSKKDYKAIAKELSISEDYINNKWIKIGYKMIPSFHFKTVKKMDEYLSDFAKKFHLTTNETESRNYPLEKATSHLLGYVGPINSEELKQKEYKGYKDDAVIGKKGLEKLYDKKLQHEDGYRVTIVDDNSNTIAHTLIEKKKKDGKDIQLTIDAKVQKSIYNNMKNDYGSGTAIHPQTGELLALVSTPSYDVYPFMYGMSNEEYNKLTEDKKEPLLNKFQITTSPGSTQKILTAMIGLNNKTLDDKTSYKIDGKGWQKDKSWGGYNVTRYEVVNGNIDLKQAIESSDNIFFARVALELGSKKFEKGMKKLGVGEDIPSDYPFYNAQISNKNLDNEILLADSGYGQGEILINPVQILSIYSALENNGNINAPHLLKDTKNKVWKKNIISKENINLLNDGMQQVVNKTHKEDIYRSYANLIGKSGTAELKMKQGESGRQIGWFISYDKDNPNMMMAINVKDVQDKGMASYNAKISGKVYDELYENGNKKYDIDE
Test: fluorescence dequenching (FAM/BHQ hairpin opening); Binding-assay buffer not stated; amplification assay in PBS, room temperature, 60 min, 100 nM H1
Conditions: label: FAM and BHQ at the two termini

B1: H1 probe (allosteric hairpin with PBP2a aptamer section d) (structured_DNA)
DNA: CACCCCACCTCGCTCCCGTGACACTAATGCTATTTTTTTTTATTTCTTTATCCTCAGCTTAGTGTCACTAAGC
binding result: binds
